From US20210139548A1 (published 2021)
*1 amine or outer side, *2 acyl side, *3 side chain or, on linkers, in order; H or OH if unused. Side-chain parts run from the residue outwards. The star is where a group is joined. C18 diacid = O=C(O)CCCCCCCCCCCCCCCCC(=O)*; γGlu = O=C(O)[C@H](CCC(=O)[*:2])N[*:1]; Isovaleryl = CC(C)CC(=O)*; AEEA = NCCOCCOCC(=O)O

T1: human neuropeptide Y2 receptor (human, UniProt P49146 1-381)
T1 sequence (looked up): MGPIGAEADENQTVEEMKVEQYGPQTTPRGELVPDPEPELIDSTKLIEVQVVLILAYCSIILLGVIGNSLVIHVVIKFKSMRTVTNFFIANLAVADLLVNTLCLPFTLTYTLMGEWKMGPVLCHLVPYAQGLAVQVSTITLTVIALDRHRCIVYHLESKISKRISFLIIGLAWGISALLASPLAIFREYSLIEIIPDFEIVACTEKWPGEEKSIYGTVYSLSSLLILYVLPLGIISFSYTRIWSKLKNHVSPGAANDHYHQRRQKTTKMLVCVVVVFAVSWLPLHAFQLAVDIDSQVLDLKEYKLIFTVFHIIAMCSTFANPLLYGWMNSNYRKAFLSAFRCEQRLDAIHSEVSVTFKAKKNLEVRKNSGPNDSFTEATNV

T2: human NPY1 receptor (human, UniProt P25929 1-384)
T2 sequence (looked up): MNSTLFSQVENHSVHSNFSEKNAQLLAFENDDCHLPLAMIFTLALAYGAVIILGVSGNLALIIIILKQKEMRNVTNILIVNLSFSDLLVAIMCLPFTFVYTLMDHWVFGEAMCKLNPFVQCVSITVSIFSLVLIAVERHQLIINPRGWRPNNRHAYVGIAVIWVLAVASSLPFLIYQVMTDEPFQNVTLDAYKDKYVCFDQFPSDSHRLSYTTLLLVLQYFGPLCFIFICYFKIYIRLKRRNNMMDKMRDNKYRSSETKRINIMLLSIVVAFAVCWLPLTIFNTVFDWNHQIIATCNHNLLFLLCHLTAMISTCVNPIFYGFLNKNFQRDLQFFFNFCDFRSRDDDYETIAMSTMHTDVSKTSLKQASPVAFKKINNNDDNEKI

T3: human NPY5 receptor (human, UniProt Q15761 1-445)
T3 sequence (looked up): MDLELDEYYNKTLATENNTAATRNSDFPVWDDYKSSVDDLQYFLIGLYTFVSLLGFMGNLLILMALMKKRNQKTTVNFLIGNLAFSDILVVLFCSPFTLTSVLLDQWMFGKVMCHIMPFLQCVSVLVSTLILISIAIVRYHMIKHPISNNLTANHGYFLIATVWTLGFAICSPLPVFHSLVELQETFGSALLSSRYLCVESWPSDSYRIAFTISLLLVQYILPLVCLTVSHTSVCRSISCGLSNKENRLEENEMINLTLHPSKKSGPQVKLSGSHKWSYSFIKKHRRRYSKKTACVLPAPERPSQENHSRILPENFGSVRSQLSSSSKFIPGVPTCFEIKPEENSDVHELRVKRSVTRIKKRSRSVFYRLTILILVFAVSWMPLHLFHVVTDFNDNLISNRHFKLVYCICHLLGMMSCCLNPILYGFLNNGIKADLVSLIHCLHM

B1: Compound 29 (peptide)
peptide: Isovaleryl-APEK([AEEA-AEEA-γGlu-C18 diacid])PEAPASPEELQRYYVELRHYYNWLTRQRY-NH2
SMILES: CC(C)CC(=O)N[C@@H](C)C(=O)N1CCC[C@H]1C(=O)N[C@@H](CCC(=O)O)C(=O)N[C@@H](CCCCNC(=O)COCCOCCNC(=O)COCCOCCNC(=O)CC[C@H](NC(=O)CCCCCCCCCCCCCCCCC(=O)O)C(=O)O)C(=O)N1CCC[C@H]1C(=O)N[C@@H](CCC(=O)O)C(=O)N[C@@H](C)C(=O)N1CCC[C@H]1C(=O)N[C@@H](C)C(=O)N[C@@H](CO)C(=O)N1CCC[C@H]1C(=O)N[C@@H](CCC(=O)O)C(=O)N[C@@H](CCC(=O)O)C(=O)N[C@@H](CC(C)C)C(=O)N[C@@H](CCC(N)=O)C(=O)N[C@@H](CCCNC(=N)N)C(=O)N[C@@H](Cc1ccc(O)cc1)C(=O)N[C@@H](Cc1ccc(O)cc1)C(=O)N[C@H](C(=O)N[C@@H](CCC(=O)O)C(=O)N[C@@H](CC(C)C)C(=O)N[C@@H](CCCNC(=N)N)C(=O)N[C@@H](Cc1c[nH]cn1)C(=O)N[C@@H](Cc1ccc(O)cc1)C(=O)N[C@@H](Cc1ccc(O)cc1)C(=O)N[C@@H](CC(N)=O)C(=O)N[C@@H](Cc1c[nH]c2ccccc12)C(=O)N[C@@H](CC(C)C)C(=O)N[C@H](C(=O)N[C@@H](CCCNC(=N)N)C(=O)N[C@@H](CCC(N)=O)C(=O)N[C@@H](CCCNC(=N)N)C(=O)N[C@@H](Cc1ccc(O)cc1)C(N)=O)[C@@H](C)O)C(C)C

Target: T1, human neuropeptide Y2 receptor
Test: cell-based or functional assay

| Binder | EC50 (HTRF cAMP Gi assay) [nM] |
| --- | --- |
| Isovaleryl-APAK([AEEA-AEEA-γGlu-C18 diacid])PEEDATPEELQRYYVSLRHYYNWLTRQRY-NH2 [Compound 106] | 0.173 |

Target: T2, human NPY1 receptor
Test: cell-based or functional assay

| Binder | EC50 (HTRF cAMP Gi assay) [nM] |
| --- | --- |
| Isovaleryl-APAK([AEEA-AEEA-γGlu-C18 diacid])PEEDATPEELQRYYVSLRHYYNWLTRQRY-NH2 [Compound 106] | > 5000 |

Target: human NPY4 receptor (human, UniProt P50391 1-375)
Test: cell-based or functional assay

human NPY4 receptor, sequence (P50391 whole entry): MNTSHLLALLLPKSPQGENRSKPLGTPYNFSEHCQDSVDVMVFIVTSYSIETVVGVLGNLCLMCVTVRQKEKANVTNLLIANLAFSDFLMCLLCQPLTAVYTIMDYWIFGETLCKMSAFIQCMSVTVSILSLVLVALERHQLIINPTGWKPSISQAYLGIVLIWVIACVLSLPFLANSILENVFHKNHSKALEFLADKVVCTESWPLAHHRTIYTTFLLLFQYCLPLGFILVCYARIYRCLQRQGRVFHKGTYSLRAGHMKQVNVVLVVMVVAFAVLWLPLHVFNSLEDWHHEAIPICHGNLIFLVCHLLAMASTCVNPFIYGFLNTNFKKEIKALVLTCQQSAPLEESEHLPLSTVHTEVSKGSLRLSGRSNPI

| Binder | EC50 (HTRF cAMP Gi assay) [nM] |
| --- | --- |
| Isovaleryl-APAK([AEEA-AEEA-γGlu-C18 diacid])PEEDATPEELQRYYVSLRHYYNWLTRQRY-NH2 [Compound 106] | > 5000 |

Target: T3, human NPY5 receptor
Test: cell-based or functional assay

| Binder | EC50 (HTRF cAMP Gi assay) [nM] |
| --- | --- |
| Isovaleryl-APAK([AEEA-AEEA-γGlu-C18 diacid])PEEDATPEELQRYYVSLRHYYNWLTRQRY-NH2 [Compound 106] | > 5000 |

Target: T1, human neuropeptide Y2 receptor
Test: ratio of apparent Ki, pH 6.1-6.2 over pH 7.1-7.2
Method: (§1) The filtration RLB assay was carried out in 96-well plates in a final volume of 100 μl per well. Freeze-dried test peptides were dissolved in 100% dimethyl sulfoxide (DMSO) to stock solutions of 1 mM and serial dilutions were performed in assay buffer (50 mM HEPES, 5 mM MgCl₂, 1 mM CaCl₂, pH 7.4) containing 0.2% ovalbumin. […] Next, 80 μL membranes (HTS066M, ChemiSCREEN™ Human Neuropeptide Y2 Receptor Membrane Preparation, CHEMICON) were added to each well to give a final protein concentration of 0.5 μg/well. The plates were sealed and incubated at room temperature for 2 hours in a plate shaker set at 400 rpm. The incubation was stopped by vacuum filtration onto 0.5% poly-ethylene amine (PEI) presoaked GF/C filters using a 96-well FilterMate™ harvester (Perkin Elmer) followed by four washes with 300 μl/well ice-cold wash buffer (50 mM HEPES, 500 mM NaCl, pH7.4). Filter plates were then dried for 60 min at room temperature and the bottom of the plates was sealed with backing tape UniFilter-96. Finally, 50 μl/well scintillation counter cocktail (Microscint20, Packard) was added and the radioactivity was counted in the Packard TopCount NXT scintillation counter. IC₅₀ values (the half maximal inhibitory concentration of the agonist) were calculated by nonlinear regression analysis of sigmoidal dose-response curves.
(§2) Peptides (as TFA salts) were weighed out in a filter unit (Mini-UniPrep Syringeless Filter 0.45 μm, Whatman), and 0.1 M sodium diphosphate buffer at pH 6.4 or 7.4, respectively, or 0.2 M TRIS buffer at pH 8.3 was added to achieve 10 mg/ml final concentration. The peptide was (partially) dissolved by shaking the filter unit horizontally at approx. 400 rpm for 2 hours at room temperature. The sample was filtered to remove any insoluble particles.

| Binder | RLB ratio (RLB6/RLB7) |
| --- | --- |
| B1 | 0.9 |
| Isovaleryl-APAK([AEEA-AEEA-γGlu-C18 diacid])PEEDATPEELQRYYVSLRHYYNWLTRQRY-NH2 [Compound 106] | 0.8 |

Target: T1, human neuropeptide Y2 receptor
Test: ratio of apparent Ki, pH 8.1-8.2 over pH 7.1-7.2
Method: as §1, §2

| Binder | RLB ratio (RLB8/RLB7) |
| --- | --- |
| B1 | 0.5 |
| Isovaleryl-APAK([AEEA-AEEA-γGlu-C18 diacid])PEEDATPEELQRYYVSLRHYYNWLTRQRY-NH2 [Compound 106] | 0.8 |

Target: T1, human neuropeptide Y2 receptor
Test: radioligand competition (125I-PYY(1-36)), hNPY2R membranes
Method in brief: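 Commercial human Y2 receptor membranes (0.5 μg protein/well) were incubated with peptide for 2 h at room temperature in 50 mM HEPES, 5 mM MgCl₂, 1 mM CaCl₂, pH 7.4, with 0.2% ovalbumin. Bound radioligand was separated on PEI-soaked GF/C filters and counted by scintillation, and IC₅₀ came from nonlinear sigmoidal regression.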

| Binder | Ki [nM] |
| --- | --- |
| B1 | 0.29 |
| Isovaleryl-APEK([AEEA-AEEA-γGlu-C18 diacid])PEEDASPEEIQRYYVSLRHYYNWLTRQRY-NH2 [Compound 84] | 1.19 |
| Isovaleryl-APAK([AEEA-AEEA-γGlu-C18 diacid])PEEDATPEELQRYYVSLRHYYNWLTRQRY-NH2 [Compound 106] | 0.66 |
| Isovaleryl-APAK([AEEA-AEEA-γGlu-C18 diacid])PEEDASPEELQRYYVSLRHYYNWLTRQRY-NH2 [Compound 203] | 0.75 |

Target: T1, human neuropeptide Y2 receptor
Test: RLB 6: apparent Ki of filtrate after incubation at pH 6.1-6.2

| Binder | Ki [nM] |
| --- | --- |
| B1 | 3.8 |
| Isovaleryl-APEK([AEEA-AEEA-γGlu-C18 diacid])PEEDASPEEIQRYYVSLRHYYNWLTRQRY-NH2 [Compound 84] | 6.6 |
| Isovaleryl-APAK([AEEA-AEEA-γGlu-C18 diacid])PEEDATPEELQRYYVSLRHYYNWLTRQRY-NH2 [Compound 106] | 7.7 |
| Isovaleryl-APAK([AEEA-AEEA-γGlu-C18 diacid])PEEDASPEELQRYYVSLRHYYNWLTRQRY-NH2 [Compound 203] | 4.6 |

Target: T1, human neuropeptide Y2 receptor
Test: RLB 7: apparent Ki of filtrate after incubation at pH 7.1-7.2
Method: as §1, §2

| Binder | Ki [nM] |
| --- | --- |
| B1 | 4.4 |
| Isovaleryl-APAK([AEEA-AEEA-γGlu-C18 diacid])PEEDATPEELQRYYVSLRHYYNWLTRQRY-NH2 [Compound 106] | 9.3 |
| Isovaleryl-APAK([AEEA-AEEA-γGlu-C18 diacid])PEEDASPEELQRYYVSLRHYYNWLTRQRY-NH2 [Compound 203] | 11.1 |

Target: T1, human neuropeptide Y2 receptor
Test: RLB 8: apparent Ki of filtrate after incubation at pH 8.1-8.2
Method: as §1, §2

| Binder | Ki [nM] |
| --- | --- |
| B1 | 2.3 |
| Isovaleryl-APAK([AEEA-AEEA-γGlu-C18 diacid])PEEDATPEELQRYYVSLRHYYNWLTRQRY-NH2 [Compound 106] | 7.5 |

Target: T1, human neuropeptide Y2 receptor
Test: radioligand competition (125I-PYY(1-36)), hY2R membranes; DMSO stock
Method: as §1

| Binder | Ki [nM] |
| --- | --- |
| B1 | 4.6 |
| Isovaleryl-APEK([AEEA-AEEA-γGlu-C18 diacid])PEEDASPEEIQRYYVSLRHYYNWLTRQRY-NH2 [Compound 84] | 3.5 |
| Isovaleryl-APAK([AEEA-AEEA-γGlu-C18 diacid])PEEDATPEELQRYYVSLRHYYNWLTRQRY-NH2 [Compound 106] | 6 |
| Isovaleryl-APAK([AEEA-AEEA-γGlu-C18 diacid])PEEDASPEELQRYYVSLRHYYNWLTRQRY-NH2 [Compound 203] | 3 |
